According to article PMC11582362:

Experiments:
[1] = target: T1, ADAR1-dsRBD3 interface mutant (monomeric) (Homo sapiens, UniProt P55265 708-801, V747A;D748Q;W768V;C773S); experiment: ITC; N = 3.60 ± 0.36; ITC: 25 mM Na-phosphate pH 7.0, 100 mM NaCl, 2 mM 2-mercaptoethanol, 25 °C; 2.25 uM dsRNA in cell, 80 uM protein in syringe; details: protein: recombinant; tags: N-terminal His6 (uncleaved); blunt
T1 sequence: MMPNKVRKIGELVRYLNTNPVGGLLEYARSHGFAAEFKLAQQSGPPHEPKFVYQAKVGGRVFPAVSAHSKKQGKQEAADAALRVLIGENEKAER

[2] = target: T2, ADAR1-dsRBD3 wild-type (dsRBD3-mid) (Homo sapiens, UniProt P55265 708-801); experiment: ITC; N = 4.15 ± 0.42; source data sheet gives 123 nM; ITC: 25 mM Na-phosphate pH 7.0, 100 mM NaCl, 2 mM 2-mercaptoethanol, 25 °C; 2.25 uM dsRNA in cell, 80 uM protein in syringe; details: protein: recombinant; tags: N-terminal His6 (uncleaved); chain copies: 2; blunt
T2 sequence: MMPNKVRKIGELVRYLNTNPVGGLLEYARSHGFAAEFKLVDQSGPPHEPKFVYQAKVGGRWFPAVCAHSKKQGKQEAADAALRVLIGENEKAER

[3] = target: T3, ADAR1-dsRBD3 (dsRBD3-short) (Homo sapiens, UniProt P55265 716-797); experiment: X-ray crystallography; 2.8 A; crystals from 50 mM Na cacodylate pH 6.0, 5% PEG 4000, 30 mM CaCl2, 230 mM KCl; ITC: 25 mM Na-phosphate pH 7.0, 100 mM NaCl, 2 mM 2-mercaptoethanol, 25 °C; 2.25 uM dsRNA in cell, 80 uM protein in syringe; details: protein: recombinant; tags: His6 removed by TEV (residual residues remain); chain copies: 2; self-duplex of 2 copies, 11 bp, 3' overhang 2 nt (CG) on each strand; overhangs pair to form a continuous pseudo-A-form helix; 3 strands per asymmetric unit
T3 sequence: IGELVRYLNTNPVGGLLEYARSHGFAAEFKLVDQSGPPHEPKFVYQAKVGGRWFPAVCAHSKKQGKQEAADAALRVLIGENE

Row | Binder | Kd [1] [nM] | Kd [2] [nM] | binding result [3]
1 | 24 bp dsRNA duplex (dsRNA) RNA 1: GGGAUCAAUAUGCUAAGCGAUCCC RNA 2: GGGAUCGCUUAGCAUAUUGAUCCC | 410 ± 65 | 125 ± 25 | 
2 | 13-nt self-complementary RNA (dsRNA) RNA 1: CGAAGCCUUCGCG RNA 2: CGAAGCCUUCGCG |  |  | binds
